To fix the notation:
B2: Tom1(215–493) (domain or fragment, human, UniProt O60784-2 215-493, looked up)
chain: EQIGKLRSELEMVSGNVRVMSEMLTELVPTQAEPADLELLQELNRTCRAMQQRVLELIPQIANEQLTEELLIVNDNLNNVFLRHERFERFRTGQTTKAPSEAEPAADLIDMGPDPAATGNLSSQLAGMNLGSSSVRAGLQSLEASGRLEDEFDMFALTRGSSLADQRKEVKYEAPQATDGLAGALDARQQSTGAIPVTQACLMEDIEQWLSTDVGNDAEEPKGVTSEGKFDKFLEERAKAADRLPNLSSPSAEGPPGPPSGPAPRKKTQEKDDDMLFAL
notes: source: E. coli BL21 (DE3), purified (Ni-NTA, SEC); not shown: thioredoxin, N-terminal, cleaved; His6, N-terminal, cleaved
B4: C-terminal cargo-binding domain (CBD) of Myosin VI (residues 1157–1285) (domain or fragment, human, UniProt Q9UM54-1 1157-1285, looked up)
chain: ARQREIEMNRQQRFFRIPFIRPADQYKDPQSKKKGWWYAHFDGPWIARQMELHPDKPPILLVAGKDDMEMCELNLEETGLTRKRGAEILPRQFEEIWERCGGIQYLQNAIESRQARPTYATAMLQSLLK
notes: monomer by light scattering and ultracentrifugation; 15N-labelled in some NMR experiments; also called C-terminal CBD of Myosin VI; source: E. coli BL21 (DE3), purified (Ni-NTA, SEC); not shown: thioredoxin, N-terminal, cleaved; His6, N-terminal, cleaved

Conditions in all cases: both partners purified
For test [1], the target named is B4. As to the kind of experiment: ITC; 25 °C, 20 mM Tris pH 7.9, 100 mM NaCl, 1 mM DTT; 50 µM protein in the cell, 500 µM in the syringe; one-site binding model. (In general: In ITC the heat of successive injections is recorded.)
Test [2] concerns the target B4. Description: SEC + SEC-MALS + AUC; analytical gel filtration, multi-angle light scattering (20 mM Tris-HCl pH 7.9, 100 mM NaCl, 1 mM DTT) and sedimentation velocity (20 °C) of each protein alone and of the complex. In general terms: Size exclusion chromatography separates by hydrodynamic size, large species first.
For test [3], the target named is B2. As to the kind of experiment: ITC; 25 °C, 20 mM Tris pH 7.9, 100 mM NaCl, 1 mM DTT; 50 µM protein in the cell, 500 µM in the syringe; one-site binding model.

B1: Tom1(392–493) (domain or fragment, human, UniProt O60784-2 392-493, looked up)
chain: TDGLAGALDARQQSTGAIPVTQACLMEDIEQWLSTDVGNDAEEPKGVTSEGKFDKFLEERAKAADRLPNLSSPSAEGPPGPPSGPAPRKKTQEKDDDMLFAL
notes: 15N-labelled in one NMR titration; source: E. coli BL21 (DE3), purified (Ni-NTA, SEC); not shown: thioredoxin, N-terminal, cleaved; His6, N-terminal, cleaved
Turning to B1, in test [1], the Kd (commonly the equilibrium constant for the complex coming apart) was 930 nM; the dH is -9.9 ± 0.11 kcal/mol; the stoichiometry N (in general, a count of units in the complex or per binding partner) worked out at 1.12 ± 0.01.
As to B2, in test [1], the dH was -7.61 ± 0.09 kcal/mol and the “stoichiometry N” value was determined as 1.44 ± 0.01.

B3: Tom1(437–463), Myosin VI-binding motif (domain or fragment, human, UniProt O60784-2 437-463, looked up)
chain: GVTSEGKFDKFLEERAKAADRLPNLSS
notes: monomer by light scattering and ultracentrifugation; also called Tom1 MBM; source: E. coli BL21 (DE3), purified (Ni-NTA, SEC); not shown: thioredoxin, N-terminal, cleaved; His6, N-terminal, cleaved
On to B3, for which, in test [1], binding was put at a Kd of 670 nM, the dH was -14.9 ± 0.1 kcal/mol and the “stoichiometry N” value worked out at 0.74 ± 0.01. In test [2], the “stoichiometry N” value was found to be 1.
Turning to B4, binding in test [3] was characterised by a dissociation constant (Kd) of 2130 nM.

B5: Tom1(392–463) (domain or fragment, human, UniProt O60784-2 392-463, looked up)
chain: TDGLAGALDARQQSTGAIPVTQACLMEDIEQWLSTDVGNDAEEPKGVTSEGKFDKFLEERAKAADRLPNLSS
notes: as for B1
As to B5, in test [1], the Kd came out at 760 nM, the dH is -10.6 ± 0.16 kcal/mol and the “stoichiometry N” value came out at 0.91 ± 0.01.

B6: Tom1(437–493) (domain or fragment, human, UniProt O60784-2 437-493, looked up)
chain: GVTSEGKFDKFLEERAKAADRLPNLSSPSAEGPPGPPSGPAPRKKTQEKDDDMLFAL
notes: as for B2
As to B6, in test [1], the affinity, expressed as Kd, was 760 nM; the dH is -12.7 ± 0.11 kcal/mol; the “stoichiometry N” value was 0.83 ± 0.01.

For the origin of these results see PMC6673701, “Structure of Myosin VI/Tom1 complex reveals a cargo recognition mode of Myosin VI for tethering” (Nature Communications, 2019).
